Positions count from the first letter of the chain named.
B1: R7-9070: shuffled maize HPPD, Round 7, variant 9070 (SEQ ID NO:2); backbone for saturation mutagenesis (protein)
chain: MGPTPTATAAGAAVAAASAAEQAAFRLVGHRNFVRFNPRSDRFQTLAFHHVELWCADAASAAGRFSFALGVPLAARSDLSTGNSAHASLLLRSGSLSLLFTAPYAHGADAATAALPSFSAAAARRFAADHGLAVRAVALRVADAEDAFRASVAAGARPAFGPVDLGRGFRLAEVELYGDVVLRYVSYPDGAAGEPFLPGFEGVASPGAADYGLSRFDHIVGNVPELAPAAAYMAGFTGFHEFAEFTTEDVGTTESGLNSMALANNSENVLLPLNEPVHGTKRRSQIQTFLDHHGGPGVQHIALASDDVLRTLREMRARSAMGGFEFLPPPLSDYYDGVRRCAGDVLTEAQINECQELGVMVDRDDQGVLLQIFTKPVGDRPTFFLEIIQRIGCMEKDEKGQEYQKGGCGGFGKGNFGQLFKSIEDYEKSLEAKQAAAAATAQGS
modifications: Zea mays variant form created by artificial means.
notes: backbone for saturation mutagenesis
B2: P056028-B-09 (protein)
chain: B1 chain with G337D, Q366E, M394V, Q434R
modifications: Zea mays variant form created by artificial means.
B3: P056028-B-02 (protein)
chain: B1 chain with P206S, E356K, Q366E, K428R, A438V
modifications: Zea mays variant form created by artificial means.
B4: P056028-A-03 (protein)
chain: B1 chain with A191G, Y211L, Q366E, A432R, Q434R
modifications: Zea mays variant form created by artificial means.
B5: P056028-D-03 (protein)
chain: B1 chain with L182M, S214N, Q366E
modifications: Zea mays variant form created by artificial means.
B6: P056028-G-01R (protein)
chain: B1 chain with Y211L, S214N, R340K, Q366E, M394R, A432K, Q434R
modifications: Zea mays variant form created by artificial means.
B7: P056028-G-01 (protein)
chain: B1 chain with Y211L, S214N, R340K, Q366E, A432K, Q434R
modifications: Zea mays variant form created by artificial means.

Key:
Format in all cases: biochemical, Z. mays
[1] = test system: 4-hydroxyphenylpyruvate dioxygenase (HPPD); assay: HPPD activity coupled assay with HGD; substrate saturation kinetic parameters (kcat, KM)
How it was run: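 Coupled continuous assay: His-tagged HPPD (5 to 240 nM, E. coli-expressed, Ni-NTA-purified) with 50 nM P. aeruginosa HGD in 25 mM Hepes pH 7, 2 mM ascorbate, 10 μM FeSO4; maleylacetoacetate followed at 320 nm. KM and Vmax from Lineweaver-Burke fits over 3.33–100 μM HPP.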

[2] = test system: 4-hydroxyphenylpyruvate dioxygenase (HPPD); assay: OFF rate ratio: release of inhibitor from pre-formed enzyme-inhibitor complex; conditions: for Insensitivity, isoxaflutole (DKN), Rate ratio OFF: inhibitor diketonitrile form of isoxaflutole (DKN); for Insensitivity, mesotrione, Rate ratio OFF: inhibitor mesotrione; for Insensitivity, sulcotrione, Rate ratio OFF: inhibitor sulcotrione; for Insensitivity, tembotrione, Rate ratio OFF: inhibitor tembotrione; for Insensitivity, topramezone, Rate ratio OFF: inhibitor topramezone
How it was run: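 Inhibitor release from pre-formed complex (enzyme 7.2 μM, inhibitor 8 μM, 1 h RT) tracked as accelerating HPPD activity at 320 nm over 12 min, coupled via 50 nM HGD with 100 μM HPP at pH 7. OFF rate ratio: steady-state velocity relative to uninhibited initial velocity.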

[3] = test system: 4-hydroxyphenylpyruvate dioxygenase (HPPD); assay: Insensitivity parameter (ON × OFF) and trait fitness (ON × OFF × kcat/KM or × kcat); set-up: key to ON × OFF / Insensitivity, mesotrione, ON × OFF / Insensitivity, tembotrione, ON × OFF / Insensitivity, topramezone, ON × OFF / Insensitivity, sulcotrione, ON × OFF / Insensitivity, isoxaflutole (DKN), ON × OFF: insensitivity = ON rate ratio × OFF rate ratio (surrogate for KD); conditions: for Insensitivity, isoxaflutole (DKN), ON × OFF / Insensitivity, isoxaflutole (DKN), Trait fitness: inhibitor diketonitrile form of isoxaflutole (DKN); for Insensitivity, mesotrione, ON × OFF / Insensitivity, mesotrione, Trait Fitness: inhibitor mesotrione; for Insensitivity, sulcotrione, ON × OFF / Insensitivity, sulcotrione, Trait fitness: inhibitor sulcotrione; for Insensitivity, tembotrione, ON × OFF / Insensitivity, tembotrione, Trait fitness: inhibitor tembotrione; for Insensitivity, topramezone, ON × OFF / Insensitivity, topramezone, Trait Fitness: inhibitor topramezone
How it was run: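 Trait fitness combines catalysis and insensitivity as kcat/KM × ON rate ratio × OFF rate ratio. The insensitivity parameter is the product of ON and OFF rate ratios, used in place of KD because the ON rate ratio is inverse.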

[4] = Table 2, E. coli purified proteins
[5] = substrate saturation kinetic analysis
[6] = Table 7, tembotrione, combinatorial variants
[7] = Table 5, tembotrione, fold vs maize wild type HPPD

Molecule	Km [1, 5] [µM]	kcat [1, 5] [s⁻¹]	OFF rate ratio [2, 6]	Insensitivity, isoxaflutole (DKN), Rate ratio OFF [2]	Insensitivity, mesotrione, Rate ratio OFF [2]	Insensitivity, sulcotrione, Rate ratio OFF [2]	Insensitivity, tembotrione, Rate ratio OFF [2]	Insensitivity, topramezone, Rate ratio OFF [2]	ON × OFF ([3]; Megatable 3, shuffled variants)	ON × OFF × kcat ([3]; Megatable 3, shuffled variants)	ON × OFF [3, 6]	ON × OFF × kcat [3, 6]	Insensitivity, isoxaflutole (DKN), ON × OFF [3]	Insensitivity, isoxaflutole (DKN), Trait fitness [3]	Insensitivity, mesotrione, ON × OFF [3]	Insensitivity, mesotrione, Trait Fitness [3]	Insensitivity, sulcotrione, ON × OFF [3]	Insensitivity, sulcotrione, Trait fitness [3]	Insensitivity, tembotrione, ON × OFF [3]	Insensitivity, tembotrione, Trait fitness [3]	other results
B1	2.91	1.48	0.116	0.20	0.89	0.71	0.22	0.25	0.086	3.45	0.086	3.45	0.11	3.30	0.59	18.1	0.38	11.8	0.17	5.36	Km [1, 4]: 2.9 µM; kcat [1, 4]: 1.48 s⁻¹; Km ([1]; Table 6): 2.35 µM; kcat ([1]; Table 6, single substitutions in SEQ ID NO:2): 0.918 s⁻¹; OFF ratio (parameters with tembotrione) ([2]; Table 5, tembotrione): 0.21; OFF rate ratio ([2]; mesotrione): 0.83; Insensitivity parameter, ON × OFF ([3]; DKN (diketonitrile form of isoxaflutole)): 0.24; Insensitivity parameter, ON × OFF ([3]; Mesotrione, Table 6): 0.45; Insensitivity parameter, ON × OFF ([3]; Sulcotrione): 0.56; ON × OFF × kcat, Value ([3]; Table 5, tembotrione): 5.25; ON × OFF × kcat, Fold vs wt [3, 7]: 4.90; ON × OFF, fold vs wt [3, 7]: 30.0; ON × OFF (parameters with tembotrione) ([3]; Table 5, tembotrione, insensitivity parameter): 0.15; Insensitivity parameter, ON × OFF ([3]; Tembotrione): 0.19; Insensitivity parameter, ON × OFF ([3]; Topramezon): 0.26; Insensitivity, topramezone, ON × OFF [3]: 0.13; Insensitivity, topramezone, Trait Fitness [3]: 3.99; Fitness Fold vs Zm wt ([3]; mesotrione): 7.9; Insensitivity parameter, ON × OFF ([3]; mesotrione, Table 2): 0.56; Insensitivity ON × OFF, Fold vs wt ([3]; mesotrione, vs maize wild type): 9.11
B2	3	1.55	0.187	0.33	1.00	0.88	0.35	0.48	0.121	4.19	0.121	4.19	0.25	7.93	0.67	21.2	0.68	21.6	0.26	8.28	Insensitivity, topramezone, ON × OFF [3]: 0.38; Insensitivity, topramezone, Trait Fitness [3]: 12.12
B3	3	0.978	0.469	0.43	1.00	1.00	0.47	0.53	0.375	10.58	0.375	10.58	0.35	6.78	0.63	12.3	0.81	15.8	0.37	7.35	Insensitivity, topramezone, ON × OFF [3]: 0.42; Insensitivity, topramezone, Trait Fitness [3]: 8.17
B4	2.98	1.05	0.243	0.43	1.00	0.93	0.40	0.47	0.181	4.36	0.181	4.36	0.34	7.25	0.70	14.8	0.75	15.7	0.32	6.81	Insensitivity, topramezone, ON × OFF [3]: 0.38; Insensitivity, topramezone, Trait Fitness [3]: 7.97
B5	2.08	0.737	0.453	0.40	1.00	1.11	0.45	0.58	0.349	6.83	0.349	6.83	0.31	6.51	0.68	14.5	0.84	17.9	0.35	7.44	Insensitivity, topramezone, ON × OFF [3]: 0.46; Insensitivity, topramezone, Trait Fitness [3]: 9.88
B6	2.02	1.18	0.280	0.38	1.00	1.11	0.28	0.53	0.201	14.24	0.201	14.24	0.29	3.98	0.73	25.6	0.83	11.5	0.20	7.09	Insensitivity, topramezone, ON × OFF [3]: 0.43; Insensitivity, topramezone, Trait Fitness [3]: 5.91
B7	2.06	0.69	0.320	0.42	1.00	1.14	0.47	0.57	0.238	7.65	0.238	7.65	0.32	6.55	0.71	14.6	0.89	18.2	0.36	7.32	Insensitivity, topramezone, ON × OFF [3]: 0.46; Insensitivity, topramezone, Trait Fitness [3]: 9.31
